Drawing on patent US20240321457A1 (University of California, published 2024), this text covers PPI score for three molecules.

First the molecules themselves.
T1: UBE2N (human, UniProt P61088 1-152)
T1 construct: endogenous prey from cell lysate; also called UBC13
T1 sequence (looked up): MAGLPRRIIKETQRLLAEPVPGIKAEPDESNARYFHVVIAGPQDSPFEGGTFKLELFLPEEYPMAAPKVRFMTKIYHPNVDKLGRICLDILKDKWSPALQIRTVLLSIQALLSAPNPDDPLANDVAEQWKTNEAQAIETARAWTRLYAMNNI

B1: BRCA1 C61G (enzyme, human, UniProt P38398 1-1863, looked up)
chain: MDLSALRVEEVQNVINAMQKILECPICLELIKEPVSTKCDHIFCKFCMLKLLNQKKGPSQGPLCKNDITKRSLQESTRFSQLVEELLKIICAFQLDTGLEYANSYNFAKKENNSPEHLKDEVSIIQSMGYRNRAKRLLQSEPENPSLQETSLSVQLSNLGTVRTLRTKQRIQPQKTSVYIELGSDSSEDTVNKATYCSVGDQELLQITPQGTRDEISLDSAKKAACEFSETDVTNTEHHQPSNNDLNTTEKRAAERHPEKYQGSSVSNLHVEPCGTNTHASSLQHENSSLLLTKDRMNVEKAEFCNKSKQPGLARSQHNRWAGSKETCNDRRTPSTEKKVDLNADPLCERKEWNKQKLPCSENPRDTEDVPWITLNSSIQKVNEWFSRSDELLGSDDSHDGESESNAKVADVLDVLNEVDEYSGSSEKIDLLASDPHEALICKSERVHSKSVESNIEDKIFGKTYRKKASLPNLSHVTENLIIGAFVTEPQIIQERPLTNKLKRKRRPTSGLHPEDFIKKADLAVQKTPEMINQGTNQTEQNGQVMNITNSGHENKTKGDSIQNEKNPNPIESLEKESAFKTKAEPISSSISNMELELNIHNSKAPKKNRLRRKSSTRHIHALELVVSRNLSPPNCTELQIDSCSSSEEIKKKKYNQMPVRHSRNLQLMEGKEPATGAKKSNKPNEQTSKRHDSDTFPELKLTNAPGSFTKCSNTSELKEFVNPSLPREEKEEKLETVKVSNNAEDPKDLMLSGERVLQTERSVESSSISLVPGTDYGTQESISLLEVSTLGKAKTEPNKCVSQCAAFENPKGLIHGCSKDNRNDTEGFKYPLGHEVNHSRETSIEMEESELDAQYLQNTFKVSKRQSFAPFSNPGNAEEECATFSAHSGSLKKQSPKVTFECEQKEENQGKNESNIKPVQTVNITAGFPVVGQKDKPVDNAKCSIKGGSRFCLSSQFRGNETGLITPNKHGLLQNPYRIPPLFPIKSFVKTKCKKNLLEENFEEHSMSPEREMGNENIPSTVSTISRNNIRENVFKEASSSNINEVGSSTNEVGSSINEIGSSDENIQAELGRNRGPKLNAMLRLGVLQPEVYKQSLPGSNCKHPEIKKQEYEEVVQTVNTDFSPYLISDNLEQPMGSSHASQVCSETPDDLLDDGEIKEDTSFAENDIKESSAVFSKSVQKGELSRSPSPFTHTHLAQGYRRGAKKLESSEENLSSEDEELPCFQHLLFGKVNNIPSQSTRHSTVATECLSKNTEENLLSLKNSLNDCSNQVILAKASQEHHLSEETKCSASLFSSQCSELEDLTANTNTQDPFLIGSSKQMRHQSESQGVGLSDKELVSDDEERGTGLEENNQEEQSMDSNLGEAASGCESETSVSEDCSGLSSQSDILTTQQRDTMQHNLIKLQQEMAELEAVLEQHGSQPSNSYPSIISDSSALEDLRNPEQSTSEKAVLTSQKSSEYPISQNPEGLSADKFEVSADSSTSKNKEPGVERSSPSKCPSLDDRWYMHSCSGSLQNRNYPSQEELIKVVDVEEQQLEESGPHDLTETSYLPRQDLEGTPYLESGISLFSDDPESDPSEDRAPESARVGNIPSSTSALKVPQLKVAESAQSPAAAHTTDTAGYNAMEESVSREKPELTASTERVNKRMSMVVSGLTPEEFMLVYKFARKHHITLTNLITEETTHVVMKTDAEFVCERTLKYFLGIAGGKWVVSYFWVTQSIKERKMLNEHDFEVRGDVVNGRNHQGPKRARESQDRKIFRGLEICCYGPFTNMPTDQLEWMVQLCGASVVKELSSFTLGTGVHPIVVVQPDAWTEDNGFHAIGQMCEAPVVTREWVLDSVALYQCQELDTYLIPQIPHSHY
notes: 3xFLAG-tagged bait; also called RING domain mutant C61G
B2: BRCA1 M1775R (enzyme, human, UniProt P38398 1-1863, looked up)
chain: MDLSALRVEEVQNVINAMQKILECPICLELIKEPVSTKCDHIFCKFCMLKLLNQKKGPSQCPLCKNDITKRSLQESTRFSQLVEELLKIICAFQLDTGLEYANSYNFAKKENNSPEHLKDEVSIIQSMGYRNRAKRLLQSEPENPSLQETSLSVQLSNLGTVRTLRTKQRIQPQKTSVYIELGSDSSEDTVNKATYCSVGDQELLQITPQGTRDEISLDSAKKAACEFSETDVTNTEHHQPSNNDLNTTEKRAAERHPEKYQGSSVSNLHVEPCGTNTHASSLQHENSSLLLTKDRMNVEKAEFCNKSKQPGLARSQHNRWAGSKETCNDRRTPSTEKKVDLNADPLCERKEWNKQKLPCSENPRDTEDVPWITLNSSIQKVNEWFSRSDELLGSDDSHDGESESNAKVADVLDVLNEVDEYSGSSEKIDLLASDPHEALICKSERVHSKSVESNIEDKIFGKTYRKKASLPNLSHVTENLIIGAFVTEPQIIQERPLTNKLKRKRRPTSGLHPEDFIKKADLAVQKTPEMINQGTNQTEQNGQVMNITNSGHENKTKGDSIQNEKNPNPIESLEKESAFKTKAEPISSSISNMELELNIHNSKAPKKNRLRRKSSTRHIHALELVVSRNLSPPNCTELQIDSCSSSEEIKKKKYNQMPVRHSRNLQLMEGKEPATGAKKSNKPNEQTSKRHDSDTFPELKLTNAPGSFTKCSNTSELKEFVNPSLPREEKEEKLETVKVSNNAEDPKDLMLSGERVLQTERSVESSSISLVPGTDYGTQESISLLEVSTLGKAKTEPNKCVSQCAAFENPKGLIHGCSKDNRNDTEGFKYPLGHEVNHSRETSIEMEESELDAQYLQNTFKVSKRQSFAPFSNPGNAEEECATFSAHSGSLKKQSPKVTFECEQKEENQGKNESNIKPVQTVNITAGFPVVGQKDKPVDNAKCSIKGGSRFCLSSQFRGNETGLITPNKHGLLQNPYRIPPLFPIKSFVKTKCKKNLLEENFEEHSMSPEREMGNENIPSTVSTISRNNIRENVFKEASSSNINEVGSSTNEVGSSINEIGSSDENIQAELGRNRGPKLNAMLRLGVLQPEVYKQSLPGSNCKHPEIKKQEYEEVVQTVNTDFSPYLISDNLEQPMGSSHASQVCSETPDDLLDDGEIKEDTSFAENDIKESSAVFSKSVQKGELSRSPSPFTHTHLAQGYRRGAKKLESSEENLSSEDEELPCFQHLLFGKVNNIPSQSTRHSTVATECLSKNTEENLLSLKNSLNDCSNQVILAKASQEHHLSEETKCSASLFSSQCSELEDLTANTNTQDPFLIGSSKQMRHQSESQGVGLSDKELVSDDEERGTGLEENNQEEQSMDSNLGEAASGCESETSVSEDCSGLSSQSDILTTQQRDTMQHNLIKLQQEMAELEAVLEQHGSQPSNSYPSIISDSSALEDLRNPEQSTSEKAVLTSQKSSEYPISQNPEGLSADKFEVSADSSTSKNKEPGVERSSPSKCPSLDDRWYMHSCSGSLQNRNYPSQEELIKVVDVEEQQLEESGPHDLTETSYLPRQDLEGTPYLESGISLFSDDPESDPSEDRAPESARVGNIPSSTSALKVPQLKVAESAQSPAAAHTTDTAGYNAMEESVSREKPELTASTERVNKRMSMVVSGLTPEEFMLVYKFARKHHITLTNLITEETTHVVMKTDAEFVCERTLKYFLGIAGGKWVVSYFWVTQSIKERKMLNEHDFEVRGDVVNGRNHQGPKRARESQDRKIFRGLEICCYGPFTNRPTDQLEWMVQLCGASVVKELSSFTLGTGVHPIVVVQPDAWTEDNGFHAIGQMCEAPVVTREWVLDSVALYQCQELDTYLIPQIPHSHY
notes: 3xFLAG-tagged bait; also called BRCT domain mutant M1775R
B3: BRCA1 R71G (enzyme, human, UniProt P38398 1-1863, looked up)
chain: MDLSALRVEEVQNVINAMQKILECPICLELIKEPVSTKCDHIFCKFCMLKLLNQKKGPSQCPLCKNDITKGSLQESTRFSQLVEELLKIICAFQLDTGLEYANSYNFAKKENNSPEHLKDEVSIIQSMGYRNRAKRLLQSEPENPSLQETSLSVQLSNLGTVRTLRTKQRIQPQKTSVYIELGSDSSEDTVNKATYCSVGDQELLQITPQGTRDEISLDSAKKAACEFSETDVTNTEHHQPSNNDLNTTEKRAAERHPEKYQGSSVSNLHVEPCGTNTHASSLQHENSSLLLTKDRMNVEKAEFCNKSKQPGLARSQHNRWAGSKETCNDRRTPSTEKKVDLNADPLCERKEWNKQKLPCSENPRDTEDVPWITLNSSIQKVNEWFSRSDELLGSDDSHDGESESNAKVADVLDVLNEVDEYSGSSEKIDLLASDPHEALICKSERVHSKSVESNIEDKIFGKTYRKKASLPNLSHVTENLIIGAFVTEPQIIQERPLTNKLKRKRRPTSGLHPEDFIKKADLAVQKTPEMINQGTNQTEQNGQVMNITNSGHENKTKGDSIQNEKNPNPIESLEKESAFKTKAEPISSSISNMELELNIHNSKAPKKNRLRRKSSTRHIHALELVVSRNLSPPNCTELQIDSCSSSEEIKKKKYNQMPVRHSRNLQLMEGKEPATGAKKSNKPNEQTSKRHDSDTFPELKLTNAPGSFTKCSNTSELKEFVNPSLPREEKEEKLETVKVSNNAEDPKDLMLSGERVLQTERSVESSSISLVPGTDYGTQESISLLEVSTLGKAKTEPNKCVSQCAAFENPKGLIHGCSKDNRNDTEGFKYPLGHEVNHSRETSIEMEESELDAQYLQNTFKVSKRQSFAPFSNPGNAEEECATFSAHSGSLKKQSPKVTFECEQKEENQGKNESNIKPVQTVNITAGFPVVGQKDKPVDNAKCSIKGGSRFCLSSQFRGNETGLITPNKHGLLQNPYRIPPLFPIKSFVKTKCKKNLLEENFEEHSMSPEREMGNENIPSTVSTISRNNIRENVFKEASSSNINEVGSSTNEVGSSINEIGSSDENIQAELGRNRGPKLNAMLRLGVLQPEVYKQSLPGSNCKHPEIKKQEYEEVVQTVNTDFSPYLISDNLEQPMGSSHASQVCSETPDDLLDDGEIKEDTSFAENDIKESSAVFSKSVQKGELSRSPSPFTHTHLAQGYRRGAKKLESSEENLSSEDEELPCFQHLLFGKVNNIPSQSTRHSTVATECLSKNTEENLLSLKNSLNDCSNQVILAKASQEHHLSEETKCSASLFSSQCSELEDLTANTNTQDPFLIGSSKQMRHQSESQGVGLSDKELVSDDEERGTGLEENNQEEQSMDSNLGEAASGCESETSVSEDCSGLSSQSDILTTQQRDTMQHNLIKLQQEMAELEAVLEQHGSQPSNSYPSIISDSSALEDLRNPEQSTSEKAVLTSQKSSEYPISQNPEGLSADKFEVSADSSTSKNKEPGVERSSPSKCPSLDDRWYMHSCSGSLQNRNYPSQEELIKVVDVEEQQLEESGPHDLTETSYLPRQDLEGTPYLESGISLFSDDPESDPSEDRAPESARVGNIPSSTSALKVPQLKVAESAQSPAAAHTTDTAGYNAMEESVSREKPELTASTERVNKRMSMVVSGLTPEEFMLVYKFARKHHITLTNLITEETTHVVMKTDAEFVCERTLKYFLGIAGGKWVVSYFWVTQSIKERKMLNEHDFEVRGDVVNGRNHQGPKRARESQDRKIFRGLEICCYGPFTNMPTDQLEWMVQLCGASVVKELSSFTLGTGVHPIVVVQPDAWTEDNGFHAIGQMCEAPVVTREWVLDSVALYQCQELDTYLIPQIPHSHY
notes: 3xFLAG-tagged bait; also called RING domain mutant R71G

For the assay, the target named is T1, UBE2N. Description: AP-MS, PPI score from compPASS and SAINTexpress, MDA-MB-231 cells.
Method: For AP-MS experiments, samples were resuspended in 15 μL of MS loading buffer (4% formic acid, 2% acetonitrile) and 2 μL were separated by a reversed-phase gradient over a nanoflow 75 μm ID×25 cm long picotip column packed with 1.9 μM C18 particles (Dr. Maisch). Peptides were directly injected over the course of a 75 min acquisition into a Q-Exactive Plus mass spectrometer (Thermo), or over the course of a 90 min acquisition into a Orbitrap Elite mass spectrometer. […] Peptides and proteins were filtered to 1% false discovery rate in MaxQuant, and identified proteins were then subjected to protein-protein interaction scoring.
All PPI scoring was performed separately for each cell line. For SAINTexpress, control samples in which bait protein was not induced by addition of doxycycline were used. For CompPASS, a stats table representing all WT baits was used. After scoring, the CompPASS WD and Z-score were normalized within a given bait for each cell line. The total list of candidate PPIs was filtered to those that met the following criteria: SAINTexpress BFDR=<0.05, WD percentile by bait>=0.95, and Z-score percentile by bait≤=0.95. PPIs passing all 3 of these criteria were considered to be high-confidence PPIs. To enable visualization and analysis of PPIs by confidence score among these 3 criteria, a PPI score was calculated: [(WD percentile by bait+Z-score percentile by bait)/2)+(1−BFDR)]/2.
B1 showed a PPI score of less than 0.6.
Molecule B2 showed a PPI score of less than 0.6.
In the case of B3 it was less than 0.6.
